Columns and labels:
[1] = molecular target: chimeric receptor: extracellular and transmembrane portions of the mouse type I IL-1 receptor fused to the cytoplasmic portion of human 2F1 (mouse; human) (UniProt P13504); test: cell-based or functional assay; conditions: scale: fold of the level mediated by the intact mouse type I IL-1R
[2] = molecular target: T1, soluble type I IL-1RI/Fc fusion protein (extracellular domain of human type I IL-1R fused to the Fc region … (human, UniProt P14778 18-336)); test: BIAcore; Fc fusion captured by anti-human IgG Fc serum
T1 construct: extracellular domain; Positive control in the BIAcore assay; also called human type I IL-1R/Fc fusion protein; not shown: Fc region polypeptide (human IgG1, as for 2F1/Fc)
T1 sequence (looked up): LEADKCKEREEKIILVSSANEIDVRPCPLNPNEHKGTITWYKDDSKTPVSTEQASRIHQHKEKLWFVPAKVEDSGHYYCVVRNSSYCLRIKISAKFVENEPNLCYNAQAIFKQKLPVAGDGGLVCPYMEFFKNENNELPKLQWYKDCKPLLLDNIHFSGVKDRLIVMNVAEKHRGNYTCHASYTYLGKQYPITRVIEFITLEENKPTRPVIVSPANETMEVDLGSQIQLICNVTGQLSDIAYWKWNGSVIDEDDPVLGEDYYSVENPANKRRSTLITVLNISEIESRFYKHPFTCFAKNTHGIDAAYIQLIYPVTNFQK
From the text: (§1) A BIAcore biosensor (Pharmacia Biosensor AB, Piscataway, N.J.) was used to examine binding of IL-1 ligands to the human 2F1/Fc fusion protein, using procedures essentially as described in Arend et al. (*J. Immunol.* 153: 4766–4774, 1994). Briefly, a goat anti-human IgG serum directed against the Fc region (Jackson Immunoresearch Laboratories, Inc., West Grove, Pa.), covalently coupled to the dextran matrix of a hydrogel chip, was used to capture the human 2F1/Fc protein. The 2F1/Fc fusion protein thus was immobilized on the BIAcore chip. The three IL-1 ligands, at several different concentrations, were reacted with the captured protein, and the change of mass per unit area over time was measured.

[3] = molecular target: T2, 2F1/Fc soluble fusion protein (human 2F1 extracellular domain joined to the Fc region of a human IgG1) (human, UniProt Q13478 20-329); test: BIAcore; 2F1/Fc captured by anti-human IgG Fc serum, ligand at several different concentrations
T2 construct: Captured on the BIAcore chip by goat anti-human IgG Fc serum; also called human 2F1/Fc fusion protein; 2F1/Fc protein; not shown: Fc region of a human IgG1; made by procedures analogous to Baum et al. 1994
T2 sequence: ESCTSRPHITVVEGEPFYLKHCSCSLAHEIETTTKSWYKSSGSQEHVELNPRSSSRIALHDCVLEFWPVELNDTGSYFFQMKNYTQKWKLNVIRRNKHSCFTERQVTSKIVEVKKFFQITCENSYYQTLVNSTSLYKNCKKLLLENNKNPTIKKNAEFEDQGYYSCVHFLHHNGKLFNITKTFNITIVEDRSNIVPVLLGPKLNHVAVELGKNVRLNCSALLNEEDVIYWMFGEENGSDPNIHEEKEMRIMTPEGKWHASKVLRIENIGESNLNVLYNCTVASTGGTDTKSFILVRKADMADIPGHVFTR
From the text: as §1

chimeric receptor: extracellular and transmembrane portions of the mouse type I IL-1 receptor fused to the cytoplasmic portion of human 2F1 (mouse; human), sequence (P13504 other isoform, or with tags, fused parts or gaps mutant, form in doubt): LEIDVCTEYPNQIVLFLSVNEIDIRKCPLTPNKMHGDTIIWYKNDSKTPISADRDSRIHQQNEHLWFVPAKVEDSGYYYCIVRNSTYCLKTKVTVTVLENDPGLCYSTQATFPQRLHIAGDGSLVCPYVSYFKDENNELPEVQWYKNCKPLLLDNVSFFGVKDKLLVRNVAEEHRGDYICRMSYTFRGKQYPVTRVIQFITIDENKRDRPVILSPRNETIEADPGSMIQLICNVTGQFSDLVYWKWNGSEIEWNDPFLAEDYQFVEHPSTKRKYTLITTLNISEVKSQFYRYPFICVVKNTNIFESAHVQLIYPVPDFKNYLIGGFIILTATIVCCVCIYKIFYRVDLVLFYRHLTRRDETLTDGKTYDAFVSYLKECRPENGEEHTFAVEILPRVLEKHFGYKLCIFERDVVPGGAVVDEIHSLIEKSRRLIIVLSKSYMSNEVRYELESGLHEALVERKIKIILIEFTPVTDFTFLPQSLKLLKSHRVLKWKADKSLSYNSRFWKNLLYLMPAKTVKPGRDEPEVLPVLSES

B1: human IL-1α (ligand, UniProt P01583 113-271, looked up)
chain: SAPFSFLSNVKYNFMRIIKYEFILNDALNQSIIRANDQYLTAAALHNLDEAVKFDMGAYKSSKDDAKITVILRISKTQLYVTAQDEDQPVLLKEMPEIPKTITGSETNLLFFWETHGTKNYFTSVAHPNLFIATKQDYWVCLAGGPPSITDFQILENQA
[1]
  induction of IL-8 promoter function (IL-2Rα reporter, COS7 cells): 0.5
[2]
  binding result: binds
[3]
  binding result: no binding
